# Molecular target: KLHDC2 substrate binding domain (KLHDC2^SBD, 15-361) (UniProt Q9Y2U9)
# Sequence (Q9Y2U9 15-361): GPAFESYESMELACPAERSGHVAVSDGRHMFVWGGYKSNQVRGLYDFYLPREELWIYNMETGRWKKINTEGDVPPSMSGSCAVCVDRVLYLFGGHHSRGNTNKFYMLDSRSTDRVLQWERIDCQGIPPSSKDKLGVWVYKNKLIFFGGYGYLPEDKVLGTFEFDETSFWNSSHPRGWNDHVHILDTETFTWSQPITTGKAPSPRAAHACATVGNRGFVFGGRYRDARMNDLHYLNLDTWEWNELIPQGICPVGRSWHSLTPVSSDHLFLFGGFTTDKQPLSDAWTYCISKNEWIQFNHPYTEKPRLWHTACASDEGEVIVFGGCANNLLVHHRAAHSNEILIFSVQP
substance,measurement,value
"BRD3^BD2 (second bromodomain of BRD3, residues 306-416) (from UniProt Q15059 306-416) (domain or fragment)","improvement of the IC50 of inhibition of KLHDC2 di-Gly substrate ubiquitylation, SJ46421-BRD3^BD2 against SJ46421 alone (orders-of-magnitude)",2

# — article PMC11470957, “Principles of paralog-specific targeted protein degradation engaging the C-degron E3 KLHDC2” (Nature Communications, 2024)
